Measurements as given in patent US20230242586A1, “RAS INHIBITORS AND USES THEREOF” (The Regents of the University of California, priority 2020, published 2023).

Biological target: biotinylated wildtype K-Ras·GppNHp (His-Avi-TEV-KRAS (wildtype)) (human)
Assay: TR-FRET Ras-Raf interaction assay (competition); reference K-Ras(G12D)

fold IC50 on wildtype K-Ras against that for K-Ras(G12D) | Substance
> 20 fold | bicyclic variant of KD2 (Val3 and Arg9 replaced with azidoalanine and propargylglycine) (peptide)
> 20 fold | bicyclic variant of KD2 (Val3 and Arg9 replaced with two cysteines) (peptide)
